# Assay: soluble on expression in E. coli; label from the status in PepcDB or PDB records
row,Sequence,soluble on expression in E. coli
1,MAHHHHHHMEFNRSQAAGNGKYVELFAQSYSGPVPKPLPPCTEPTPDEQYRQLMEEKKNEIGEREQRHAENTAGASGSNVDSSNVVGLFSNAATKLRNVAQQVTLKIERASTEVSSATGAAVRQVERQLNVDRFLSNFPELGAMGEILLADYACTAINGGQRVSGHMHITKNYLCFSAPGSSVINQLATAVLKESGVGSDNNPVLGIRQIIPLTEIACILLSVALETVDHRPPFFLPLPASYVRPTGLQIYTTKQQLFQFLAFESIAAKAGSVFTDAVKGLPIQRAYNYLDHAWRASTSVPLPGVNYAS,not soluble
2,TEKTKAVETTDVALAIDTLVQNGLKALDEMRQLNQEQVDYIVAKASVAALDAHGELALHAVEETGRGVFEDKATKNLFACEHVVNNMRHTKTVGVIEEDDVTGLTLIAEPVGVVCGITPTTNPTSTAIFKSLISLKTRNPIIFAFHPSAQESSAHAARIVRDAAIAAGAPENCVQWIEQPSIDATNALMNHDGIATILATGGNAMVKAAYSCGKPALGVGAGNVPAYVEKSANIRQAAHDIVMSKSFDNGMVCASE,not soluble
3,MGSDKIHHHHHHMLPKWDNSYSVHNAKIDEQHKKLFKLAAKVEVVSDRSVSKNEVKELLAEFFNYMKDHFNDEEKYMQLIGYPNLEEHRKIHKEIIQTMINLIKDIKSTNDLKEKLYIVAKKWLLEHILYEDMKVEKWRSSSLSTDDGGDVSFEAAEDEDNEHPQFYLYTCNCPGKIHDVPYSIHQKIELQGRKFTCKTCKQAIKFYKKYS,not soluble
4,MAKKVRSVHECSECGYSSPKWLGRCPECGSWGSMEERTVGESGGAARAAVSGAAPAGLTPTSPAVPIGKIVASQATSISTGIGELDRVLGNGIVPGSVVLMAGEPGVGKSTLLLEVASRWASMKEGDGTRTALYVTAEESAGQVRLRAERTAAVKDTLYLAAESNLDVVFGHVNQVKPSLLIVDSVQTMHAAGVEGVAGGVAQSRAVTAALTTLAKTSGIPILLVGHVTKDGNVAGPRVLEHLVDVVLNFEGDRHSSLRMLRGIKNRFGATDEVGCFEQQSDGIKEVPDPSGLFLSHRGSTPDGTAVTVAMDGVRPLLAEVQSLLVDAPSKNPRRVVTGLDANRVPMVLAVLSARAGRQTQGKDAYVATVGGMKVGEPATDLAVALATASALAKKPLPDKTVVLGEVGLAGEIRRVPNVDRRLAEAERLGYEKAVIPGGSGIKQTSLRVIEASTLAEALAAVSLLEHHHHHH,not soluble
5,MSETTQGPTHFRLMSKLKAIGPYLREPQSQEGRYYFDCLSVCVDDKKSPEKREFWGWWMDLESIEGGFTAKYHIGKYNKEGKWVSEALPQKVVEEVYFTQSTFHQKLIDTLAEHFKLEVEYHTESFDFA,not soluble
6,MAHHHHHHMRFFKSDGTPYNSDMTDTLHGSEYVHRGGVEAIVEGVAAGQYAEHKPRAIMFVNKRPVEIIPQEENLLEVLEREGIRVPKFCYHPILSVAGNCRMCLVQVDGTQNLVVSCATVALPGMSIITDSRLVRDAREGNVELILINHPNDCPICEQATNCDLQNISMNYGTDIPRYKEDKRAVQDFYFDPQTRVVLNRCIHCTRCVRFLNEHAQDFNLGMIGRGGLSEISTFLDELEVKTDNNMPVSQLCPVGKLYLGDADENNAVADELDASEQAYAVATS,soluble
7,MSLGGTGKVGVILPLLTSPFWQSYNDYVPKMAKSEGVDTLKTVNSNSDPSQQITDINNQLNQGVKGLVVAPLDSAAIEAGLDQADRKGVPVVAVDVAPEKGKVAMVVRADNVAYGEKACQYLGEQVTSGKVVQIMGDLASVNGRDRSEAFRTCVRKNYPKLKVLEIPAKWESDTAASKLDTLLNANPDIKGIYMQAGGVYLAPTLQTLKSKGLLKKTGEKGHITIVSNDGIPQEFDAIRKGQIDATVSQPADAYAKYGMYYIKAAMQGKTFKPGPTDHDSTIVKLPSGILEDQLPAPLVTKDNVDDAKLWGNTEGHHHHHH,soluble
8,MHSQQRPNPQMNRHPYGTPGSAPQMRRPGGFAGQPPQMHGPRMVAPPAAPLPKKKKYADKCIHPKIRELEPDAENYMALLASEQKLDSTLSRKKLDIQEALKRPSKVKKRLRIYISHTFIEEKQPEKDTDEASLPMWELRVEGRLLDEQPPAPAIPGQRPVPKRKFSSFFKSLVIELDKEMYGPDQHLVEWHRTPQTNETDGFQVKRAGDRPVKCRILLLLDNHPAKFKLHPRLAKVLGIATETRPKIIEALWQYIKTHGLQDPQERDIINCDTFLSQCFGVNRMRFMEVPNKLHQLLQQTDPLEFNHIIQRPKEGQEQVSTCYDIDVEMEDPVKQFMHTFVHSPGLANDIQTLDQKCYDIIEQINELKTRRDFYARFYTEPAEFIKSWVMSQNSDLKTMNELSGDLEAERFAESYVRPETEEGVQRYMFQKVNQKRHELEQSLGVRSN,not soluble
9,MGSDKIHHHHHHCPVNWVEFGGSCYWFSRDGLTWAEADQYCQLENAHLLVINSREEQDFVVKHRSQFHIWIGLTDRDGSWKWVDGTDYRSNYRNWAFTQPDNWQGHEQGGGEDCAEILSDGHWNDNFCQQVNRWVCEKRR,not soluble
10,GAMPPIFLPPPNYLFVRDVWKSNLYSEFAVIRQLVSQYNHVSISTEFVGTLARPIGTFRSKVDYHYQTMRANVDFLNPIQLGLSLSDANGNKPDNGPSTWQFNFEFDPKKEIMSTESLELLRKSGINFEKHENLGIDVFEFSQLLMDSGLMMDDSVTWITYHAAYDLGFLINILMNDSMPNNKEDFEWWVHQYMPNFYDLNLVYKIIQEFKNPQLQQSSQQQQQQQYSLTTLADELGLPRFSIFTTTGGQSLLMLLSFCQLSKLSMHKFPNGTDFAKYQGVIYGIDGDQ,soluble
11,DYKLFITEGYEVGRVNGLAVIGESAGIVLPIIAEVTPSMSKSEGRVIATGRLQEIAREAVMNVSAIIKKYTGRDISNMDVHIQFVGTYEGVAGDSASISIATAVISAIEGIPVDQSVAMTGSLSVKGEVLPVGGVTQKIEAAIQAGLKKVIIPKDNIDDVLLDAEHEGKIEVIPVSRINEVLEHVLEDGKKKNRLMSKFKELELAAV,soluble
12,MESLNEYMDKIINRLKAVNEKDELVDEGMRKLQKCQEKIMKTRIDAQKHIDERHEQQSFEQQLLNKNMFETEQLEEKLKRLDDENKIGNEREFNKKLEAISAKWTDDVNLLKTTPNEPNDGNRKKLSNLSNILV,not soluble
13,MTVSPSYDAIVIGSGIGGLVTATQLVSKGLKVLVLERYLIPGGSAGYFEREGYRFDVGASMIFGFGDRGTTNLLTRALAAVGQALETLPDPVQIHYHLPGGLDPKVHREYEAFLQELIAKFPQEAQGIRRFYDECWQVFNCLNTMELLSLEEPRYLMRVFFQHPGACLGLVKYLPQNVGDIARRHIQDPDLLKFIDMECYCWSVVPADLTPMINAGMVFSDRHYGGINYPKGGVGQIAESLVAGLEKFGGKIRYGARVTKIIQENNQAIGVELANGEKIYGRRIVSNATRWDTFGALTGDQPLPGKEKRWRRNYQQSPSFLSLHLGVEADLLPEGTECHHILLEDWDDLEKEQGTIFVSIPTLLDPSLAPDGYHIIHTFTPSWLESWQNLSPQEYEAKKEADSGKLIDRLEAIFPGLDRALDYMEIGTPRSHRRFLGRQNGTYGPIPRRRLPGLLPMPFNRTAIPGLYCVGDSTFPGQGLNAVAFSGFACAHRLAVDLGVRLEHHHHHH,not soluble
14,MSLAESQLSKLDVNLQSLNPYTFSKTRCIVNLHISDDTKNRDPSTTNGSYSNSQLLSNGEHVCYHFSQDYCVLSIYPVTDAITGKTVVVHLPHETFNDHHTFTMAEEDGCIVMDLILKTGLFLTLRFSLEYLFNRNADINSSWYSLLKPYDFTVRLPDYLYKVNSALSIVYLNDGGLLGLQKTQTSGSDEYDLHPVLFNDNSYFQSFTRFFSHNDSGRENVVSSVSYGDYHLLTLTENCKLRIWDLRTNSVTAQLNLITDPQDKHRKYESIGPYLALLDSVLVVFLPFGNGAFRTFQLSVNNSGGLVLTPRGELIRTNLSTASIWSLVDTKLTKPFELNIETSYLQMVVLWKSNTSIKLQILNFETEALDKHSWVEASNKSLPDILDNDILGDNFEQSLLDLKAHYTPAIYEEAQRILSANGIIFVPSQQNNDEYLSNLESILKDLKKHHDEPSSLTLYNGEVVMVNTLYLYNHFVYKINSKLESFYYNLTSEGHHHHHH,soluble
15,MSLKLSDPGPIFYGHRRVGHNGRYFHCLKFRTMAMNGDEMLRQYLAANPEAAEEWRATRKLKNDPRVTAVGAVLRKLSLDELPQLLNIIRGEMSVVGPRPVVDEELSYYENAAAYYLSTRPGLTGLWQISGRNDVSYKTRVAFDTQYVQNWSMRQDVFIIVKTIPAVCMSRGSYEGHHHHHH,soluble
16,MAEPVRLGRKRPLPVCPNPLFVRWLTEWRDEAASRGRHTRFVFQKALRSLQRYPLPLRSGKEAKILQHFGDRLCRMLDEKLKQHLASGGD,soluble
17,MNRWEGLDEFVAVAETGQFTAAAERMGVSSSHISRQVARLEERLQTRLLYRSTRRVSLSEAGQTFLQHCQRLQDARDEALRAVSDLSAEPKGLLRMTCAVAYGERFIVPLVNAFMADYPQLRVDIELSNRQLDLLHEGFDLAIRLGRLSDSRLVATRLAPRVMYLCATPEYLRRHGTPQSPAELGQFNCLIGSSDLWSFLEDGRETQHRVQGNWRCNSGQAVLDAALRGFGLCQLPDYYVIEHLRSGRLASLLEGHQPPNTAVWALYPQQRHLSPKVRQLVDYLKEGLAQSHPGLAGEKNLR,not soluble
18,MSLDLHTHTIYSDGIGSVIDNVNMAEIRGLRLLGISDHIHFFTPSKFLKYVNEVRSIGREAEIPVLVGIEANITENGPDVTEDFAKHLDYVIASVHDWFGEGEVYRYIERIKLALMDENVTIIGHFGNVFPWIGYPTEEQIKEVLDVAEEYGKAFEISSRYRVPDLEFVKMCIKRGIKLVFASDAHRPEDVGRVDWSIKVFEKAGGKKEDLLFSEEGHHHHHH,soluble
19,MSLSASTHDLVIIGAGPAGMSAALTAASLGMKTLLLDEQLRPGGQIYRNITAVPPSVAALLGPDYRHGEGLAARLGRSGVELRFGAMVWDVARDLTVTAQQDGQSFQVRAPQLIAATGAMERASPIPGWTLPGVLNAGAAQIALKSASAVPSGRVVLAGSGPLLLLVACQLLDAGVSLAGIVETSPSTNRWRALRHLPAALGAHAYLAKGLRMLWRLRRAGVPMFAAATSLRVEGGERVQALAFKADRIDHLLHADVVLLHHGVVPNTQLSRLLRVDHDWDLVQLAWRPQVNAWGETSLAGFRVAGDGAAIAGAQAAEPNGTLAALGAAQALGRLDVTECEQRAASARGTLKRQLRIRPFLDALYRPPEWLSDPTDETVVCRCEEVTAGRVREMARLGCQGPNQTKFFSRCGMGPCQGRVCGLTVTQILSTELGRPPSEVGAYHIRSPLKPVPLASIAALADTATIENSEPMETTEGHHHHHH,not soluble
20,MKSYAILNQNNLFLSLEELKAIIDSDEVEYYHGVALFNKEPNNVAKRSSLIKYSGRVIAISHDVNEIVKNIKGECFSVDPTVITKEYKSEFLSIYDRIINNIKVSKKCKKMDLIFTEGLIIAGLRVEEKDNESLFKHSKKPYSQSGTLSPDIGRLMVNLSKSRKTILDPFVGTGTILIEAKWLGLNCIGLDVDSKMIEKSLVNLRYFGYECDILRGDATSLPFNNIEAIVTDPPYGRSVSVREGINNLYEGFFYSASNITRTLVFTTDSKLDWRDKLKEVGFNDISIHFIYEHKSLSRAIYVVRKK,soluble
21,GSHMQAEILLTLKLQQKLFADPRRISLLKHIALSGSISQGAKDAGISYKSAWDAINEMNQLSEHILVERATGGKGGGGAVLTRYGQRLIQLYDLLAQIQQKAFDVLSDDDALPLNSLLAAISRFSLQTSARNQWFGTITARDHDDVQQHVDVLLADGKTRLKVAITAQSGARLGLDEGKEVLILLKAPWVGITQDEAVAQNADNQLPGIISHIERGAEQCEVLMALPDGQTLCATVPVNEATSLQQGQNVTAYFNADSVIIATLC,soluble

# Source: the DeepSol protein solubility set
